# Source: US20230212256A1 (University of Texas, published 2023)
# T1: VGLL1 (Vestigial-like 1) peptide on HLA-A*01:01 (human)
# T1 peptide: LSELETPGKY
# How the values were obtained:
# [1] = target: T1, VGLL1 (Vestigial-like 1) peptide on …; experiment: multimer staining
# HLA-A*0101 = target: T2, HLA-A*0101 (human); experiment: HLA class I immunoprecipitation, acid elution, tandem MS
# T2 construct: whole, on cells; The peptide was eluted from total HLA class I immunoprecipitated with W6/32; also called HLA-A1; HLAA1
# Experimental: Protein A/G Ultralink resin beads were used to immunoprecipate HLA class I molecules and HLA-bound peptides were then eluted with 0.1M acetic acid. HLA-A, B, C isolation was confirmed by Western blot analysis, then HLA-positive elutes were analyzed by tandem mass spectrometry (MS/MS). HLA class I protein recovery was semi-quantitatively assessed by rating Western blot band intensity on a scale from 0 (not detectable) to 4 (highest intensity). Tumor-associated HLA-bound peptides were injected onto HPLC system (Dionex 3000 RSLC), and separated by reverse-phase chromatography in 0.1% formic acid water-acetonitrile on 1.8 μm C18 (Agilent Technologies) in the MS/MS discovery phase. Peptides were analyzed on an Orbitrap Elite mass spectrometer (Thermo-Fisher) using data-dependent acquisition.
Binder,binding result [1],binding result (HLA-A*0101)
"VGLL1 TCR #2 (TCR, V domains shown) Valpha: ENVEQHPSTLSVQEGDSAVIKCTYSDSASNYFPWYKQELGKRPQLIIDIRSNVGEKKDQRIAVTLNKTAKHFSLHITETQPEDSAVYFCAARGLTGGGNKLTFGTGTQLKVEL Vbeta: GVTQSPTHLIKTRGQQVTLRCSPKSGHDTVSWYQQALGQGPQFIFQYYEEEERQRGNFPDRFSGHQFPNYSSELNVNALLLGDSALYLCASSVGTGITEAFFGQGTRLTVV",recognises,
"VGLL1 TCR #3 (TCR, V domains shown) Valpha: ENVEQHPSTLSVQEGDSAVIKCTYSDSASNYFPWYKQELGKRPQLIIDIRSNVGEKKDQRIAVTLNKTAKHFSLHITETQPEDSAVYFCAAIPNSGGYQKVTFGIGTKLQVIP Vbeta: GVTQSPTHLIKTRGQQVTLRCSPKSGHDTVSWYQQALGQGPQFIFQYYEEEERQRGNFPDRFSGHQFPNYSSELNVNALLLGDSALYLCASSVGTGITEAFFGQGTRLTVV",recognises,
LSELETPGKY (This is the native peptide eluted from immunoprecipitated HLA class I. The 13C/15N-lysine labeled synthetic peptide served only as the MS standard; also called VGLL1 231-240 peptide; VGLL1 peptide) [VGLL1-derived 10-mer peptide LSELETPGKY],,binds

# The remaining lines, values ahead:
binding result [1],binding result (HLA-A*0101),Binder
recognises,,"VGLL1 TCR #4 (TCR, V domains shown) Valpha: QQQVKQSPQSLIVQKGGISIINCAYENTAFDYFPWYQQFPGKGPALLIAIRPDVSEKKEGRFTISFNKSAKQFSLHIMDSQPGDSATYFCAAVRYNFNKFYFGSGTKLNVKP Vbeta: GVTQSPTHLIKTRGQQVTLRCSPKSGHDTVSWYQQALGQGPQFIFQYYEEEERQRGNFPDRFSGHQFPNYSSELNVNALLLGDSALYLCASSVGTGITEAFFGQGTRLTVV"
recognises,,"VGLL1 TCR #1 (TCR, V domains shown) Valpha: AQKVTQAQTEISVVEKEDVTLDCVYETRDTTYYLFWYKQPPSGELVFLIRRNSFDEQNEISGRYSWNFQKSTSSFNFTITASQVVDSAVYFCALSPGANSKLTFGKGITLSVRP Vbeta: DAGVTQSPTHLIKTRGQQVTLRCSPKSGHDTVSWYQQALGQGPQFIFQYYEEEERQRGNFPDRFSGHQFPNYSSELNVNALLLGDSALYLCASSVGTGITEAFFGQGTRLTVV"
